Reference: the nanobody polyreactivity screen of Harvey et al. (2022)

Test: yeast display, Sf9 membrane polyspecificity reagent, FACS + sequencing; frameworks hold sequencing errors
How it was run: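 Using colony PCR, genes from sorted yeast display clones were amplified, then sequenced on MiSeq at 2 × 250 and filtered by CDR length. The clones had been stained with 10% biotinylated, detergent-solubilized Sf9 membrane reagent for 1 hour at 4 °C and sorted by FACS into low and high (top ~1%) gates on anti-HA and streptavidin fluorescence. Polyreactivity labels come from the gate of origin.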
With “QVQHVESGGGIVQAGGSLRLSCAASGRTFGPYAMGWYRQAPGKEWELVAVISGRGTSTYYADSVKGRFTISRDNAKNTVYLQMNSLKPEDTAVYYCKADYGSWFWGFDYWGQGTQVTVSS” the “polyreactivity (PSR sort gate)” value was “low polyreactivity”. In the case of “QVQLVESGGGLVQAGGSLRLSCAASGIIFRANAMGWYRQAPGKERELVAAISRRGGSTYYADSVKGRFTISRDNAKNTVFLQMNSLKPEDTAVYYCAADGKNYPVGYDYWGQGTQVTVSS”, the “polyreactivity (PSR sort gate)” value was “high polyreactivity”. In the case of “QFQLVESGGGLVQAGGSLRLSCAASGRTFRYYAMGGYIQAPGKERELVGAITTGSSTYYADSVKGRFTISRDNAKNTVYLQMNSLKTEDTAVYYCHVFQGTRYGYWGQGTKVTVSS”, the “polyreactivity (PSR sort gate)” value was “low polyreactivity”. With “QVQLVESGGGLVQAGGSLRLSCAASGIIFWGYAMGWYRQAPGKERELVAAISRGGSTYYADSVKGRFTISRDNAKNTVYLQMNSLKPEDTAVYYCAATGVRTWALDYWGQGTQVTVSS” the “polyreactivity (PSR sort gate)” value was “high polyreactivity”. In the case of “QVQLVESGGGLLQAGGRLRLSCAASGFTSTRYAMGWYRQAPGKERELVAAISYGGGDTYYADSVKGRFTISRDNAKNTVYIQMNSMKPEDTAVYYCSSRLRSRNTRLYHWGQGTQGTVSS”, the “polyreactivity (PSR sort gate)” value was “high polyreactivity”. With “QVQLVESGGGLVQAGGSLRLSCAASGSIFGDYAMGWYRQAPGKERELVADISSGGSTTYADSVTGRFTISRDNAKNTVYLQMNSLKPEDTAVYYCAVDGGDFSSYGNWGQGTQVTVSS” the “polyreactivity (PSR sort gate)” value was “low polyreactivity”. With “QVQLVESGGGLVQAGGSLRLSCAASGLTFNYYDMGWYRQAPGKERELVAAISRSGTNTSYADSVKGRFTISRDNAKNTVYLQMNSLKPEDTAVYYCNAAGVYLAAGPFTANFNYNYWGQGTQVTVSS” the “polyreactivity (PSR sort gate)” value was “low polyreactivity”. With “QVQLVESGGGLVQAGGSLRLSCAASGRIFKVYAMGWSRQAPGKERELVAAITSGGSTNYADSVKGRFTISRDNAKTTVYLQMNSRKPEDTAVYYCAVVSGRWSAVQYDYWGQGTQVTVSS” the “polyreactivity (PSR sort gate)” value was “high polyreactivity”. In the case of “QVQLVESGGCLVQAGGSLRLSSPASGITFPDYDMGWYRQAPGKERELVAAITYRSGSTYYADSVKGRFTISRDNAKNTVYFQMNSLKPEDTAVYYCAAKRFLLRYYTKQYNYWGQGTQVTVSS”, the “polyreactivity (PSR sort gate)” value was “high polyreactivity”. For “QVQLVDSGGGLVQEGGRLRLSCAASGSIYDQYDMGWYRQAPGKERELVAAISNRGGCTYYADSVKGRFTISRDNAKNTVYLQMNSLKPEDTAVYYCAARKYWGYGTRYFYWGQGTQVTVSS”, the “polyreactivity (PSR sort gate)” value was “high polyreactivity”. With “QVQLVESGGGLVQAGGSLRLSCAASGSTSVYYAMGWYRQAPGKERELVAAITSGGRTYYADSVKGRFTISRDNAKNTVYLQMNSLKPEDTAVYYCNKGLYYFLPTKFRLDYWGQGTQVTVSS” the “polyreactivity (PSR sort gate)” value was “high polyreactivity”. In the case of “QVQLVESGGGLVQAGGSLRLSCAASGRTFWPYVMGWYRQAPGKERELVASITRSGGTTNYADSVKGRFTISRDNAKNTVYLQMNSLKPEDTAVYYCNARTVYSWSREYNYWGQGTQVTVSS”, the “polyreactivity (PSR sort gate)” value was “high polyreactivity”. With “QVQLVETRGGLVQAGGILRFSCAASGFTFSSNDMGWYRQAPAKEREFVAVIDSGDITNYADSVKGRFTISRDNAKNTVYLQMNSLKPEDTAVYYCAARYYAAGIGSRYDYWGQGTQVTVSS” the “polyreactivity (PSR sort gate)” value was “high polyreactivity”. With “QVQLVESGGGLVQAGGSLRLSCAASGRIQDINAMGWYRQAPGKERELVAAISYGGGTTYYADSVKGRFTISRDNAKNTVYLQMNSLKPEDTAVYYCAKDGYFPEFDYWGQGTQVTVSS” the “polyreactivity (PSR sort gate)” value was “high polyreactivity”. For “QVQLVESGGGLVQAGGSLRLSCAASGFTFTIYAMGSNRPAPGKERELVATISGRAGRTYYADSVKGRFTISRDNAKNTVYLQMNSLKPEDPAVYYCTAGQRRYPGLSYYWGQGTQVTVSS”, the “polyreactivity (PSR sort gate)” value was “high polyreactivity”. With “QVQLVESGGGLVQAGGSLRLSCAASGSTSIYYTMGWYRQAPGKERELVAYADSVKGRFTISRDNAKNTVYLQMNSMKPEDTEVYFCAAPRTYYSELTSPYDYWGQGTQVTVSS” the “polyreactivity (PSR sort gate)” value was “low polyreactivity”. In the case of “QVQLVESGGGLVQAGGSLRLSCAASGITFYSNAMGWYRQAPGKERELVARISSSGGSTYYADSVKGRFTISRDNAKNTVYLQMNSLKPEDTAVYYCAARRLWVRGYNYWGQGTQVTVSS”, the “polyreactivity (PSR sort gate)” value was “high polyreactivity”. For “QVQLVESGGGLVQAGGSLRLSCAASGRTFYSYAMGWYRQAPGKERELVAAINTSGGRTHYADSVKGRFTISRDNAKNTVYLQMNSLKPEDTAVYYCAAEVFRTRTWEYYYWGQGTQVTVSS”, the “polyreactivity (PSR sort gate)” value was “high polyreactivity”. With “QVQLVESGGGLVQAGGSLRLSCAPSGSTFSHNAMGWYRQAPGKEREFVAAISWSGGGTYADSVKGRFTISRDYAKNTVYLQMNSLKPEDTAVYYCNKVSYRSSSSSWFDYWGQGTQVTVSS” the “polyreactivity (PSR sort gate)” value was “low polyreactivity”. With “QVQLVESGGGLVQAGGSLRLSCAASGHTFTINAMGWYRQAPGKERELVAAITFSGGRTYYADSVKGRFTISRDNAKNTVYLQMNSLKPEDTAVYYCAADNPGGSIYDYWGQGTQVTVSS” the “polyreactivity (PSR sort gate)” value was “low polyreactivity”. With “QVQLVESGGGLVQAGGSLRLSCAASGSTFGGKAMGWYRQAPGKDREMVAAITGSGGRTFYADSVKGRFTISRDNAKNTVYLQMNSLKQEDTAVYSCAAYSYIYSVNYWGQVTQVTVSS” the “polyreactivity (PSR sort gate)” value was “low polyreactivity”. For “QVQLVESGGGLVQAGGRLRLSCAASGNTLRYYAMGWYRQAPGKERELVAAISESGGRTYYADSVKGRFTISRDNAKNTVYLQMNSLKPEDTAVYYCAASRWGGTWWYGYNYWGQGTQVTVSS”, the “polyreactivity (PSR sort gate)” value was “high polyreactivity”. In the case of “QVQLVESGGGLVQAGGSLRLSCAASGRTFARYVMGWYRQAPGKERELVAAISGGGGSTYYADSVKGRFTISRDNAKNTVYLQMNSLKPEDTAVYYCAAVPEGPNTGDDANGLDYWGQGTQVTVSS”, the “polyreactivity (PSR sort gate)” value was “low polyreactivity”. In the case of “QVQLVESGGGLVQAGGSLRLSCAASGSISGYYVKGWYRQAQGKERELVAAITWRGGSTYYADSVKGRFTISRDNAKNTVYLQMNSLKPEDTAVYYCNKVPGRRSTFEYWGQGTQVTVSS”, the “polyreactivity (PSR sort gate)” value was “high polyreactivity”. With “QVQLVESCGLLVQAGGSLRLSCAASGSIIVYNTMRCYRQAPGKERELVAAIYSSGGSTYYADSVKGRFTISRDNAKNTVYLQMNILKPEDTAVYYCAAVNGYQYPPYYYNGYDYWGQGTHVTVSS” the “polyreactivity (PSR sort gate)” value was “low polyreactivity”. For “QVQLVESGGGLVQAGGSLRLSCAASGRIFGYYAMGWYRQAPGKERELVAAIRWSSGRTYYADSVKGRFTISRDNAKNTVYLQMNSLKPEDTAVYYCAKDGGLRKFDYWGQGTQVTVSS”, the “polyreactivity (PSR sort gate)” value was “high polyreactivity”. With “QVQLVESGGGLVQAGGSLRLSCAASGITFYIYAMGCYRHAPGKERELVAAISSTGGSTYYADSVKGSFTISRDNAKNTVYLQMNSLKPEDNAVYYCNAVFRGTGDYWGQGTQVTVSS” the “polyreactivity (PSR sort gate)” value was “high polyreactivity”. With “QVQLVESGGGLVQAGGSLRLSCAASGFILIQYAMGWYRQAPGKERELVAAITWSDTSTNYADSVKGRFTISRDNAKNTVYLQMNSLKPEDTAVYYCNADLYGAQDRRLDYYAEGYWGQGTQVTVSS” the “polyreactivity (PSR sort gate)” value was “low polyreactivity”. For “QVQLVESGGGLVQAGGSLRLSCAASGSIYYNAMGWYRQAPGKERELVAAISTSGGTTYYADSVKGRFTISRDNAKNTVYLQMISQKPEDTAVYYCNARPSRRGAFDYWGQGTQVTVSS”, the “polyreactivity (PSR sort gate)” value was “high polyreactivity”. For “QVQLVESGGGLVQAGGSLRLSCAATGRTFRVYAIGWYRHAHAKEREFVATISVRGGSTYYADSVKGRFTISRDNAKNTVYLQMNSLKPEDTAVYYCAADSYPYVYALYDYWGQGTQVTVSS”, the “polyreactivity (PSR sort gate)” value was “low polyreactivity”. In the case of “QVQLVESGRGLFKAGGSLRLSCAASGSIFDGNAMGWYRQAPGKERELVATMSWCGGSTYYADSVKGRFTISRDNSKNNVYLQMYSVNPEETAVYHCGKTPYRRYRYGGYTYSTYDYWGQGTQVTVSS”, the “polyreactivity (PSR sort gate)” value was “low polyreactivity”. In the case of “QVQLVESGGGLVQAGGSLRLSCAASGFIFFYYAMGWYRQAPGKERELVAAITKNGGRTYYADSVKGRFTISRDNAKNTVYLQMNSLKPEDTAVYYCNKVKGQGGYYGYDYWGQGTQVTVSS”, the “polyreactivity (PSR sort gate)” value was “high polyreactivity”. For “QVQLVESGGGLVQEGGSLRLICAASGSTFWANAMGWYRQEPGKERELVAAISVRGGNTYYADSVKGRFTISRDNAKNTVYLQMNSLKAEVTAVYYCAARPISWTSYYDYWGQGTQVTVSS”, the “polyreactivity (PSR sort gate)” value was “high polyreactivity”. In the case of “QVQHVESGGGLVQAGGSLRLRCAASGRTFGQNTMGWSRQAPGKERELVAAISWSGDSTYYADSVKGRFTISRDNAKNTVYLQMNSLKTEDSAVYYCAADPYNYYVSGYDYWGQGTQVTVSS”, the “polyreactivity (PSR sort gate)” value was “low polyreactivity”. With “QVQLVESGGGLVQAGGSLRLSCAASGSIFDYYAMGWYRQAPGKERELVATITSGVSTYYADSVKGRFTISRDNAKNTVYLQMNSLKPEDTAVYYCARDYAKSQDLYKYDYWGQGTQVTVSS” the “polyreactivity (PSR sort gate)” value was “low polyreactivity”. In the case of “QVQLVESGGGLVQAGGSLRLSCAASGSILWSYAMGWYRQAPGKERELVAAIRSGGSTYYADSVKGRFTISRDNAKNTVYLQMNSLKPEDTAVYYCNATYAPLFEYDYWGQGTQVTVSS”, the “polyreactivity (PSR sort gate)” value was “low polyreactivity”. In the case of “QVQLVESGGGLVQAGGSLRLSCAASGLIFYYYTMGWYRQAPGKERELVAAITNGGRTNYADSVKGRFTISRDNAKNTVYLQMNSLKPEDTAVYYCNAVVHKYQRGPYYIKYDYWGQGTQVTVSS”, the “polyreactivity (PSR sort gate)” value was “high polyreactivity”. With “QVQLVESGGGLVQAGGSLRLSCAASGSTFKRYAMGWYRQAPGKERELVAAISSGGTTNYADSVKGRFTISRDNAKNTVYLQMNSLKPEDTAVYYCNRKFRYSSHTNYYYWGQGTQVTVSS” the “polyreactivity (PSR sort gate)” value was “high polyreactivity”. In the case of “QFQLVESGGGLVQAGGSLRLSCAASGSIFSYNAMGWYIQAPGKERELVASITSGGRTYYADSVKGRFTISRDNAKNTVYLQMYSLKPEDTAVYYCAAYQTGLHGFYSWGQGTQVTVSS”, the “polyreactivity (PSR sort gate)” value was “high polyreactivity”. In the case of “QVQLVESGGGLVQAGGSLRLSCAASGFTFHNNVMGWYRQAPGKEMELVATISKSGGSTYYADSVKGRFTISRDNAKNTVYLQMNSLKPEDTAVYYCARSYRDYGRYGYWGQGTQVTVSS”, the “polyreactivity (PSR sort gate)” value was “high polyreactivity”. For “QVQLVESGGGLVQAGGSLRLSCAASGSIIGFYAMGWYRQAPGKERELVARISKRGGITYYADSVKGRFTISRDNAKNTVDLQMNSLKPEDTAVYYCAVDRRVLWYHMDYWGQGTQVTLSS”, the “polyreactivity (PSR sort gate)” value was “high polyreactivity”. With “QVQLVESGGGLVQAGGSLRLSCAASGRTFSKNAMGWYRQAPGKERELVADISRRGGRTYYADSVNGRFTISRDNAKNTVYLQMNSLKPEDTAVYYSAARRRGSVGVGYAYPYNYWGQGTQVTVSS” the “polyreactivity (PSR sort gate)” value was “high polyreactivity”. For “QGQLVESGGGLVQAGGRLRLSCAASGSIFASYAMGWYRQAPGKERELVAAITSDGNTYYADSVKGRFTISRDNAKNTVYLQMNSLKPEDTAVYYCAADRYSTYPYAKGTEFYYWGQGTQVTVSS”, the “polyreactivity (PSR sort gate)” value was “low polyreactivity”.
